According to patent US20170304405A1:
One block for each substance: values may come before it.

Key:
Assay in all cases: cell-based or functional assay
[1] = molecular target: GHRH receptor (GHRH-R) (human) (UniProt Q02643)
GPR101 (human) = GPR101 (human) (UniProt Q96P66)
[2] = molecular target: somatostatin receptor 2 (SSTR2) (human) (UniProt P30874)
[3] = molecular target: somatostatin receptors (multi-somatostatin receptor)

UniProt Q02643, sequence (Q02643 23-423): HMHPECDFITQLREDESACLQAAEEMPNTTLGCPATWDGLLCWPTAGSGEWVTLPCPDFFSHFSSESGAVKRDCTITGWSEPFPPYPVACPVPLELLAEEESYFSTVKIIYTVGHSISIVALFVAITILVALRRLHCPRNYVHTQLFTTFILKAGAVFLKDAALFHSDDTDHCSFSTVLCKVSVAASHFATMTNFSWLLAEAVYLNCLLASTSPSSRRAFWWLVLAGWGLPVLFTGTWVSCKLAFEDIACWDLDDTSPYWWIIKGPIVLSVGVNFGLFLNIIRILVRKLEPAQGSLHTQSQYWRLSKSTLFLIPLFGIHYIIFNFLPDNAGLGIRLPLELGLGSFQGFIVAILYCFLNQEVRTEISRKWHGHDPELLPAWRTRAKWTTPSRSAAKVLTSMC
UniProt P30874, sequence (P30874 whole entry): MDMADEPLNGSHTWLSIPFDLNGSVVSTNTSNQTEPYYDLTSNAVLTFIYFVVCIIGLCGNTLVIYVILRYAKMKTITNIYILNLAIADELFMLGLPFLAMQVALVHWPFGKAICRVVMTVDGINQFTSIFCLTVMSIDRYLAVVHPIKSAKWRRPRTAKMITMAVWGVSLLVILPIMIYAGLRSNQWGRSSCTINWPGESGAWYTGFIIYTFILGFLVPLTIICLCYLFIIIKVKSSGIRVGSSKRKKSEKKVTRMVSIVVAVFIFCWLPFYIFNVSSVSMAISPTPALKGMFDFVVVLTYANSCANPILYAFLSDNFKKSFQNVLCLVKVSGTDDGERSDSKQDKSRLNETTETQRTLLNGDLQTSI
UniProt Q96P66, sequence (Q96P66 whole entry): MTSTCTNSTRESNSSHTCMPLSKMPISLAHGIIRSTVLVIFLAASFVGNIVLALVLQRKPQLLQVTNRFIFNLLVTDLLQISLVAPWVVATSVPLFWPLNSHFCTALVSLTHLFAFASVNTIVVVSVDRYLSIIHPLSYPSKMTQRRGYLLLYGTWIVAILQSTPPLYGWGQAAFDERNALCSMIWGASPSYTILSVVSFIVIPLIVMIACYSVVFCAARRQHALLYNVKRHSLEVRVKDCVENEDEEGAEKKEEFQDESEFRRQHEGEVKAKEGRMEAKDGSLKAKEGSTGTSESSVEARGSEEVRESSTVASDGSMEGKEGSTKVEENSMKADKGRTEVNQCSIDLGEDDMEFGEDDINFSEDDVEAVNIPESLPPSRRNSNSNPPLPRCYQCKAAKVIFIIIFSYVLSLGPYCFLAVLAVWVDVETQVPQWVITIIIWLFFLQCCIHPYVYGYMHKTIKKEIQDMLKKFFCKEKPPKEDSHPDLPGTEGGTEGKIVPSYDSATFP

- GH secretion by primary X-LAG pituitary tumour cells, % change vs control wells, GHRH at 10^-10 M [1]: 410%
- Prolactin secretion by primary X-LAG pituitary tumour cells, % change vs control wells, GHRH at 10^-8 M [1]: 11%
Substance: GH releasing hormone (GHRH) (from UniProt P01286 32-75) (ligand)

- GH secretion by primary X-LAG pituitary tumour cells, % change vs control, GnRH1-5 at 10^-10 M (GPR101 (human)): 15%
Substance: GnRH1-5 (from UniProt P01148 24-28) (peptide)

- Prolactin secretion by primary X-LAG pituitary tumour cells, % change vs control, octreotide at 10^-9 M [2]: -26%
Substance: octreotide (peptide)

- GH secretion by primary X-LAG pituitary tumour cells, % change vs control, maximum inhibition at 10^-8 M [3]: -18%
Substance: pasireotide (peptide)
